In the nanobody polyreactivity screen of Harvey et al. (2022):

Assay: yeast display, Sf9 membrane polyspecificity reagent, FACS + sequencing; frameworks hold sequencing errors
Outline: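 A synthetic nanobody library was expressed on Saccharomyces cerevisiae BJ5465 by galactose induction for 36–48 hours. The library was stained for 1 hour at 4 °C with 10% biotinylated, detergent-solubilized Sf9 membrane reagent and enriched with streptavidin microbeads before FACS. Low and high (top ~1%) gates were set on anti-HA fluorescence for expression and streptavidin fluorescence for reagent binding, and each polyreactivity label reflects the gate of origin.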

## QVQLVESGGGLVQAGGSLRLSCAASGGTFYVYAMGWYRQAPGKERELVAAISTSDGITYYADSVKGRFTISRDNAKNTVYLQMNSLKPEDTAVYYCAAEFFSSFTYAYDYWGQGTQVTVSS
  polyreactivity (PSR sort gate): high polyreactivity

## QVQLVESGGGLVQAGGSLRLSCAASGGTFYVYDMGWYRQTPGKEREFVADINFSTGITYYADSVKGRFTISRDNAKNTVYLQMNSLKPEDTAVYYCNADTAFYVYWYWIYDYWGQGTQVTVSS
  polyreactivity (PSR sort gate): high polyreactivity

## QVQLVESGGGLVQAGGSLRLSCAASGGTFYYNAMGWYRQAPGKERELVAGITQSGGNTYYADSVKGRFTISRDNAKNTDYLQMNSLKPEDTAVYYCAARIRGTWKYGYWGQGTQVTVSS
  polyreactivity (PSR sort gate): low polyreactivity

## QVQLVESGGGLVQAGGSLRLSCAASGGTIAGYAMGWYRQAPGKARELVASISDGGSTNYADSVKGRFTISRDNAKNTVYLQMNSLKPEDTAVYYCAVQGSRTENYDWYYYWGQGTQVTVSS
  polyreactivity (PSR sort gate): low polyreactivity

## QVQLVESGGGLVQAGGSLRLSCAASGGTIGRYTMGWYRQAPGKERELVAAITGRGGSTYYADSVKGRFTISRDNAKNTVYLQMNSLKPEDTAVYYCAAVSNVARMYYWGQGTQVTVSS
  polyreactivity (PSR sort gate): high polyreactivity

## QVQLVESGGGLVQAGGSLRLSCAASGGTIIGYAMGWYRQAPGKERELVAAITSGGSTYYADSVKGRFTISRDNAKNTVYLQMNSLKPEDTAVYYCAKSYGGLGSIYRFYYWGQGTQVTVSS
  polyreactivity (PSR sort gate): low polyreactivity

## QVQLVESGGGLVQAGGSLRLSCAASGGTLAYYAMGWYRQAPGKERELVAAITRSGGSTYYSDSVKGRFTISRDNAKNTVYLQMNSLNPEVTAVYYCAALLAYWKNRWHIEYDYWGQGTQVTVSS
  polyreactivity (PSR sort gate): low polyreactivity

## QVQLVESGGGLVQAGGSLRLSCAASGGTLGLNAMGWYRQAPGKEREFVAAINRSGGSTRYADSVKGRFTISRDNAKNTVYLQMNSLKPEDTAVYSCAAVGYWGPSGRHKSSKYEYWGQGTQVTVSS
  polyreactivity (PSR sort gate): high polyreactivity

## QVQLVESGGGLVQAGGSLRLSCAASGGTSFYAMGWYRQAPGKDRELVAAITRSGGSTYYADSVKGRFTFSRDNAKNTVYLQMNSLKPEDTAVYYCAALSNHGYYIRMDYWGQGTQVTVSS
  polyreactivity (PSR sort gate): high polyreactivity

## QVQLVESGGGLVQAGGSLRLSCAASGGTSIPYAMGWYRQAPGKERELVAAITRSGGRTYYADSVKGRFTISRDNAKNTVYLQMNSLKPEDTAVYYCAAAYYRWGYTVTVIKQFGYWGQGTQVTVSS
  polyreactivity (PSR sort gate): high polyreactivity

## QVQLVESGGGLVQAGGSLRLSCAASGHIFFVNAMGWYRQAPGKERELVAAINSVGSTYYADSVKGRFTISRDNAKNTVYLQMNSLKPEDTAVYYCAADSVYSQRHSWAYEDDYWGQGTQVTVSS
  polyreactivity (PSR sort gate): low polyreactivity

## QVQLVESGGGLVQAGGSLRLSCAASGHIFPTNPMGWYRQAPGKERQLVAVISESVGSTYYADSVKGRFTISRDNAKNTVYLQMNSLKPEDTAVYFCAKQSRYPSLDADYDYWGQGTQVTVSS
  polyreactivity (PSR sort gate): low polyreactivity

## QVQLVESGGGLVQAGGSLRLSCAASGHTFLEYAMGWYRQAPGKESELVASISFSAGSTYYADSVKGRFTISRDNAKNTVYLQLNSLKPEDTALYYCNAEYLYDYYYYWPYWFEFDYWGQGTQVTVSS
  polyreactivity (PSR sort gate): high polyreactivity

## QVQLVESGGGLVQAGGSLRLSCAASGHTLAVKAKGWYRQAPGKERELVAAITRSGVTTSYADSVKGRFTISRDNAQNTFYLQLHSVKPEDTAVSYCAAQLDASYLTGGWRRHYNYWGQGTQVTVSS
  polyreactivity (PSR sort gate): low polyreactivity

## QVQLVESGGGLVQAGGSLRLSCAASGIFDPNAMGWNRQAPRKERELVAAITSGGSTNYADSVKGRFTISRDNAKNTVYLQMNSLKPEDTAVYYCNRVEGRTRWADEMNYWGQGTQLTVSS
  polyreactivity (PSR sort gate): low polyreactivity

## QVQLVESGGGLVQAGGSLRLSCAASGIFFNYMGWYRQAPGKEREFVAAIDYRGGNTFYADSVKGRFTISRDNAKNTVYLQMNSLKPEDTAVYYCARAFGQRRYDYWGQGTQVTVSS
  polyreactivity (PSR sort gate): high polyreactivity

## QVQLVESGGGLVQAGGSLRLSCAASGIFFPNAMGCYRQAPGKERELVAAISWTGGSTFYADSVKGRFTISRDNAKNTVYLQMNSLKPEDTAVYYCAAEEYYAGWTYDYWGQGTQVTVSS
  polyreactivity (PSR sort gate): high polyreactivity

## QVQLVESGGGLVQAGGSLRLSCAASGIFGVNTMGWYRQAPGKERELVASITSGGSTNYADSVKGRFTISRDNAKNTVYLQMNSLKPEDTAVYYCAAGLYLQGPFDYWGQGTQVTVSS
  polyreactivity (PSR sort gate): low polyreactivity

## QVQLVESGGGLVQAGGSLRLSCAASGIFGYNAMGWYIQAPGKERELVAAITSSGTSTYYADSVKGRFTISRDNAKNTVYLQMNSLKPEDTAVYYCAALHSGTWTGYGYWGQGTQVTVSS
  polyreactivity (PSR sort gate): low polyreactivity

## QVQLVESGGGLVQAGGSLRLSCAASGIFSRYAMGWYRQAPGKERELVAAISSGGSTYYADSVKGRFTISRDNAKNTVYLQMNSLKAEDTAVYYCAVKQRDKFAGGRNDYWGQGTQVTVSS
  polyreactivity (PSR sort gate): high polyreactivity

## QVQLVESGGGLVQAGGSLRLSCAASGIFSYYAMGWYRPAPGKERELVAAISSSGGSTYYADSVKGRFTISRDNAMNTVYLQMNSLKPEDTAVYYCNVRNYYNDYYYWGQGTQVTVSS
  polyreactivity (PSR sort gate): high polyreactivity

## QVQLVESGGGLVQAGGSLRLSCAASGIFTRYAMGWYRQAPGKERELVAAISRGGGSTYYADSVKGRFTISRDNAKNTVYLQMNSLKPEDTAVYYCNTYKRPRSPGPKFYYWGQGTQVTVSS
  polyreactivity (PSR sort gate): high polyreactivity

## QVQLVESGGGLVQAGGSLRLSCAASGIFVDNAMGWYRQAPGKERELVAAITSSTDSTYYADSVKGRFTISRDNAKNTVYLQMNSLKPEDTAVYYCAVARPGGFYFLVHYGYGYWGQGPQVTVSS
  polyreactivity (PSR sort gate): low polyreactivity

## QVQLVESGGGLVQAGGSLRLSCAASGIIFAGNAMGWYRQAPGKERELVAAISSNGGSTYYADSVKGRFTISRDNAKNYVYLQMNSLKPEDTAVYYCAADRVYWGRVQGYYWGQGTQVTVSS
  polyreactivity (PSR sort gate): low polyreactivity

## QVQLVESGGGLVQAGGSLRLSCAASGIIFAGYAMGWYRQAPGKVRELVAAISGSGGRTYYADSVKGRLTISRDNAKNTVYLQMNSLKPEDTAVSFCAAEGRSEWGGDYYYGGQGTQVTVSS
  polyreactivity (PSR sort gate): low polyreactivity

## QVQLVESGGGLVQAGGSLRLSCAASGIIFANYAMGWYRQAPGKERELVAAITSSGSTYYADSVKGRFTISRDNAKNTVYLQMNSLKPEDTAVYYCAARRRGRFYYWGQGTQVTVSS
  polyreactivity (PSR sort gate): high polyreactivity

## QVQLVESGGGLVQAGGSLRLSCAASGIIFASNAMGWYRQAPGKQRELVATINWTDSSTYYADSVKGRFTISRDNAKNTVYLQMNSLKPEDTAVYYCAVVDVEEHVGHWGQGTQVTVSS
  polyreactivity (PSR sort gate): low polyreactivity

## QVQLVESGGGLVQAGGSLRLSCAASGIIFAYYAMGGYRHAPGKERELVAAISRSGGITYYADSVKGRFSISRDNAKNTVYLQMNSLKPEDTAVYDCARFSSRPYDYWGQGTQVTVSS
  polyreactivity (PSR sort gate): high polyreactivity

## QVQLVESGGGLVQAGGSLRLSCAASGIIFAYYAMGWYRQAPGKERELVAAISRSGGITYYADSVKGRFTISRDNAKNTVYLQMNSLKPEDTAAYYCARYSCRPYDYWGQGTQVTVSS
  polyreactivity (PSR sort gate): high polyreactivity

## QVQLVESGGGLVQAGGSLRLSCAASGIIFAYYAMGWYRQAPGKVRELVASITNTGSTYYADSVKGRFTISRDNAKNTVYLQMNSLKPEDTAVYYCNAVLSSNTKWRYPGDYWGQGTQVTVSS
  polyreactivity (PSR sort gate): low polyreactivity

## QVQLVESGGGLVQAGGSLRLSCAASGIIFAYYAMGWYRQGPGKERELVASITNTGSTYYADSVKGRFTISRDNSKNTVYLQMNSLKPEDTAVYYCNAVLSSNTKWRYPGDYWGQGTQVTVSS
  polyreactivity (PSR sort gate): low polyreactivity

## QVQLVESGGGLVQAGGSLRLSCAASGIIFDFYTMGWYRQAPGKERELVAAINSSGGSTYYADSVKGRFTISRDNAMNTVYLHMNSLKPADTAVYYCNAEYLFFWGQYDYWGQGTQVTVSS
  polyreactivity (PSR sort gate): high polyreactivity

## QVQLVESGGGLVQAGGSLRLSCAASGIIFDINAMGWYRQAPGKERELVAAITTSVDSTYYADSVKGRFTISRDNAKNTVYLQMNRLKPEDTAVYYCAVAFVQFTQYDYWGQGTQVTVSS
  polyreactivity (PSR sort gate): low polyreactivity

## QVQLVESGGGLVQAGGSLRLSCAASGIIFDINAMGWYRQAPGKERELVAAITTSVDSTYYADSVKGRFTISRDNAKNTVYLQMNSLKPEDTAVYYCAVAFVQFTQYDYWGQGTQVTVSS
  polyreactivity (PSR sort gate): low polyreactivity

## QVQLVESGGGLVQAGGSLRLSCAASGIIFDLYAMGWYRQAPGKERELVAAITYGGGSTYYADSVKGRFTISRDNAKHTVYLQMNSLQPEDTAVYYCAAVPRSGMYYWGQGTQVTVSS
  polyreactivity (PSR sort gate): high polyreactivity

## QVQLVESGGGLVQAGGSLRLSCAASGIIFDTNAMGGYRQAPGKERELVATITQRGGTTYYADSVKGRFTISRDNEKYTVYLQMNSLKPEDTAVYYCNAGPVRLPYDSWGQGTQVTVSS
  polyreactivity (PSR sort gate): low polyreactivity

## QVQLVESGGGLVQAGGSLRLSCAASGIIFDWYAMGGYRQAPGKERELVAAITSGGGSTYYADSVKGRFTISRDNAKNSVYLQMNSLKPEDSAVYYCAADYQTIGWGYDYWGQGTQVTVSS
  polyreactivity (PSR sort gate): low polyreactivity

## QVQLVESGGGLVQAGGSLRLSCAASGIIFDYNAMGWYRQAPGKERELVAAISSSGGSTYYADSVKGRFTLSRDNAKNTVYLLMTSLKPEDTAVYYCAAAPRFRGYDYWGQGTQVTVSS
  polyreactivity (PSR sort gate): high polyreactivity

## QVQLVESGGGLVQAGGSLRLSCAASGIIFDYYAMGLYRHAPGKEMELVASISWSGGGTYYADSVKGRFTISRDNAKNTVYLQMNSLKPEDTAVYYCNAGDHFVHWPHVKHKKFDYWGQGTQVTVSS
  polyreactivity (PSR sort gate): low polyreactivity

## QVQLVESGGGLVQAGGSLRLSCAASGIIFDYYAMGWYRQAPGKERELVAAITTAGSTYYADSVKGRFTISRDNAKNTVYLQLNSLNPEDTAVYYCDAYLYSVRLGSYGYWGQGTQVTVSS
  polyreactivity (PSR sort gate): high polyreactivity

## QVQLVESGGGLVQAGGSLRLSCAASGIIFDYYPMGWYRQAPGKERELVAGITRSGGRTYYADSVKGRFTISRDNAKNTVYLQMNSLKPEDTAVYYCAAQRGRRRWGGYWGQGTQVTVSS
  polyreactivity (PSR sort gate): high polyreactivity

## QVQLVESGGGLVQAGGSLRLSCAASGIIFEGYAMGWYRQATGKERELVAAITGTADGTYYADSVKGRFTISRDNAKNTVYLQMNSLKPEDTAVYYCAKGSVVYLLRGVKGHSMDYWGQGTQVTVSS
  polyreactivity (PSR sort gate): low polyreactivity

## QVQLVESGGGLVQAGGSLRLSCAASGIIFELYAMGWYRQAPGKERELVAAISNGDSTNYADSVKGRFTISRDNAKNTVYLQMNSLKPEDTAVYYCAARYSTYVRYDYWGQGTQVTVSS
  polyreactivity (PSR sort gate): low polyreactivity
